*1 amine or outer side, *2 acyl side, *3 side chain or, on linkers, in order; H or OH if unused. Where no end group is shown, it is not given here. Side-chain parts run from the residue outwards. [ ]: non-standard residue; d: D form. The star is where a group is joined. αMePhe(2-F) = C[C@](N)(Cc1ccccc1F)C(=O)O; γGlu = O=C(O)[C@H](CCC(=O)[*:2])N[*:1]; C14 diacid = O=C(O)CCCCCCCCCCCCC(=O)*; αMeY = C[C@](N)(Cc1ccc(O)cc1)C(=O)O; αMeF = C[C@](N)(Cc1ccccc1)C(=O)O; αMeL = CC(C)C[C@](C)(N)C(=O)O; Orn = NCCC[C@H](N)C(=O)O; AEEA = NCCOCCOCC(=O)O; Aib = CC(C)(N)C(=O)O
T1: human GIP receptor (human, UniProt P48546 22-466)
T1 sequence (looked up): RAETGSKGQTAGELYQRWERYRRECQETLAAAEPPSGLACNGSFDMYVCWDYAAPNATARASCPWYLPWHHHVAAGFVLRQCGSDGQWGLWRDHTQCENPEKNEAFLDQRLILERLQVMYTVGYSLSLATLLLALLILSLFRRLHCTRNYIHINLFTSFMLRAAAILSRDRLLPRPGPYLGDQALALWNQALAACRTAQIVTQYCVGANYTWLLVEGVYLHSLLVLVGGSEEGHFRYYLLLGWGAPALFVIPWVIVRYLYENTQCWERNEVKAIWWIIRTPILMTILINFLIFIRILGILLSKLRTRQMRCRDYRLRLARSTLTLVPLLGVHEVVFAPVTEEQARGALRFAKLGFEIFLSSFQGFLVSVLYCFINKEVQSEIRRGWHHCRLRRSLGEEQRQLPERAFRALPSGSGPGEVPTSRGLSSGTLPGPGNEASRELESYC


Experiments:
Test in all cases: cell-based or functional assay
human GLP-1 receptor = human GLP-1 receptor (human, UniProt P43220 24-463)
human glucagon receptor = human glucagon receptor (human, UniProt P47871 26-477)
human GIP receptor = molecular target: T1, human GIP receptor

| Binder | EC50, cAMP (human GLP-1 receptor) [nM] | EC50, cAMP (human glucagon receptor) [nM] | EC50, cAMP (human GIP receptor) [nM] | Emax, cAMP (human GIP receptor) [%] | Emax, cAMP (human GLP-1 receptor) [%] |
| --- | --- | --- | --- | --- | --- |
| Y[Aib]EGT[αMePhe(2-F)]TSDK([AEEA-AEEA-γGlu-C14 diacid])SI[αMeL]LD[Orn]IAQ[Aib]E[αMeF]I[dE][αMeY]LIEGGK([AEEA-AEEA-γGlu-C14 diacid])SSGAPPPS-NH2 (N-terminus assumed; SMILES CC[C@H](C)[C@H](NC(=O)[C@H](CCCN)NC(=O)[C@H](CC(=O)O)NC(=O)[C@H](CC(C)C)NC(=O)[C@](C)(CC(C)C)NC(=O)[C@@H](NC(=O)[C@H](CO)NC(=O)[C@H](CCCCNC(=O)COCCOCCNC(=O)COCCOCCNC(=O)CC[C@H](NC(=O)CCCCCCCCCCCCC(=O)O)C(=O)O)NC(=O)[C@H](CC(=O)O)NC(=O)[C@H](CO)NC(=O)[C@@H](NC(=O)[C@](C)(Cc1ccccc1F)NC(=O)[C@@H](NC(=O)CNC(=O)[C@H](CCC(=O)O)NC(=O)C(C)(C)NC(=O)[C@@H](N)Cc1ccc(O)cc1)[C@@H](C)O)[C@@H](C)O)[C@@H](C)CC)C(=O)N[C@@H](C)C(=O)N[C@@H](CCC(N)=O)C(=O)NC(C)(C)C(=O)N[C@@H](CCC(=O)O)C(=O)N[C@@](C)(Cc1ccccc1)C(=O)N[C@H](C(=O)N[C@H](CCC(=O)O)C(=O)N[C@@](C)(Cc1ccc(O)cc1)C(=O)N[C@@H](CC(C)C)C(=O)N[C@H](C(=O)N[C@@H](CCC(=O)O)C(=O)NCC(=O)NCC(=O)N[C@@H](CCCCNC(=O)COCCOCCNC(=O)COCCOCCNC(=O)CC[C@H](NC(=O)CCCCCCCCCCCCC(=O)O)C(=O)O)C(=O)N[C@@H](CO)C(=O)N[C@@H](CO)C(=O)NCC(=O)N[C@@H](C)C(=O)N1CCC[C@H]1C(=O)N1CCC[C@H]1C(=O)N1CCC[C@H]1C(=O)N[C@@H](CO)C(N)=O)[C@@H](C)CC)[C@@H](C)CC) [Example 112] | 2.26 | > 9950 | 0.0229 | 93.6 |  |
| Y[Aib]EGT[αMePhe(2-F)]TSDV[Aib]I[αMeL]LD[Orn]K([AEEA-AEEA-γGlu-C14 diacid])AQ[Aib]E[αMeF]IK([AEEA-AEEA-γGlu-C14 diacid])[αMeF]LIEGGPSSGAPPPS-NH2 [Example 123] | 0.508 | > 9950 | 0.101 | 94.9 | 96.3 |
| YXEGTXTSDXSIXLDXKAQXEFIXXLIEGGPSSGAPPPSK (Aib2, αMeF(2F)6, 4Pal10, αMeL13, Orn16, Aib20, D-Glu24, αMeY25, K17 and K40: K(AEEA2-(γ-Glu)-(4-(4-tert-butylphenyl)butanoyl)), C-terminal NH2) [Example 135] | 0.271 | > 9950 | 0.0184 | 92.3 |  |
| YXEGTXTSDXXIXLDXKAQXEFIKXLIEGGPSSGAPPPS (Aib2, αMeF(2F)6, 4Pal10, Aib11, αMeL13, Orn16, Aib20, αMeY25, K17 and K24: K(AEEA2-(γ-Glu)-CO-(CH2)12-CO2H), C-terminal NH2) [Example 113] | 0.291 | > 9950 | 0.0331 | 97.9 |  |
| YXEGTXTSDXSIXLDXKAQXEFIKXLIEGGPSSGAPPPS (Aib2, αMeF(2F)6, 4Pal10, αMeL13, Orn16, Aib20, αMeY25, K17 and K24: K(AEEA2-(γ-Glu)-(4-(4-tert-butylphenyl)butanoyl)), C-terminal NH2) [Example 132] | 0.182 | > 9950 | 0.0208 |  |  |
| YXEGTXTSDXSIXLDXKAQXKFIXXLIEGGPSSGAPPPS (Aib2, αMeF(2F)6, 4Pal10, αMeL13, Orn16, Aib20, D-Glu24, αMeY25, K17 and K21: K(AEEA2-(γ-Glu)-CO-(CH2)10-CH3), C-terminal NH2) [Example 137] | 0.134 | > 9950 | 0.0116 |  |  |
| YXEGTXTSDXSIXLDXKAQXEFIXXLIEGGKSSGAPPPS (Aib2, αMeF(2F)6, 4Pal10, αMeL13, Orn16, Aib20, D-Glu24, αMeY25, K17 and K31: K(AEEA-(γ-Glu)-(10-(4-carboxyphenoxy)decanoyl)), C-terminal NH2) [Example 12] | 0.423 | > 9950 | 0.0127 |  |  |
| YXEGTXTSDXSIXLDXKAQXEFIKXLIEGGPSSGAPPPS (Aib2, αMeF(2F)6, Ac5c10, αMeL13, Orn16, Aib20, αMeY25, K17 and K24: K(AEEA2-(γ-Glu)-CO-(CH2)12-CO2H), C-terminal NH2) [Example 116] | 0.197 | > 9950 | 0.137 | 115 |  |
| YXEGTXTSDXSIXLDXKAQXEFIXXLIKGGPSSGAPPPS (Aib2, αMeF(2F)6, 4Pal10, αMeL13, Orn16, Aib20, D-Glu24, αMeY25, K17 and K28: K(AEEA2-(γ-Glu)-(10-(4-carboxyphenoxy)decanoyl)), C-terminal NH2) [Example 129] | 1.28 | > 9950 | 0.0248 |  |  |
| YXEGTXTSDXSIXLDXKAQXEXIKXLIEGGPSSGAPPPS (Aib2, αMeF(2F)6, Ac5c10, αMeL13, Orn16, Aib20, αMeF22, αMeY25, K17 and K24: K(AEEA2-(γ-Glu)-CO-(CH2)12-CO2H), C-terminal NH2) [Example 120] | 1.43 | > 9950 | 0.0866 |  |  |
| YXEGTXTSDXSIXLDXKAQXEFIXXLIEGGKSSGAPPPS (Aib2, αMeF(2F)6, 4Pal10, αMeL13, Orn16, Aib20, D-Glu24, αMeY25, K17 and K31: K(AEEA2-(γ-Glu)-(7-(4-carboxyphenoxy)heptanoyl)), C-terminal NH2) [Example 125] | 2.78 | > 9950 | 0.0547 |  |  |
| YXEGTXTSDVSIXLDXKAQXEXIKXLIEGGPSSGAPPPS (Aib2, αMeF(2F)6, αMeL13, Orn16, Aib20, αMeF22, αMeY25, K17 and K24: K(AEEA2-(γ-Glu)-CO-(CH2)12-CO2H), C-terminal NH2) [Example 118] | 0.437 | > 9950 | 0.0547 | 94.7 |  |
| YXEGTXTSDKSIXLDXKAQXEFIXXLIEGGPSSGAPPPS (Aib2, αMeF(2F)6, αMeL13, Orn16, Aib20, D-Glu24, αMeY25, K10 and K17: K(AEEA2-(γ-Glu)-CO-(CH2)10-CH3), C-terminal NH2) [Example 136] | 0.0918 | > 9950 | 0.0069 | 97.4 |  |
| YXEGTXTSDXSIXLDXKAQXEFIXXLIEGGKSSGAPPPS (Aib2, αMeF(2F)6, 4Pal10, αMeL13, Orn16, Aib20, D-Glu24, αMeY25, K17 and K31: K(AEEA-(γ-Glu)-CO-(CH2)14-CH3), C-terminal NH2) [Example 13] | 0.0214 | > 9950 | 0.00597 |  |  |
| YXEGTXTSDXSIXLDXKAQXEFIXXLIEGGKSSGAPPPS (Aib2, αMeF(2F)6, 4Pal10, αMeL13, Orn16, Aib20, D-Glu24, αMeY25, K17 and K31: K(AEEA2-(γ-Glu)-(8-(4-carboxyphenoxy)octanoyl)), C-terminal NH2) [Example 126] | 1.69 | > 9950 | 0.0472 |  |  |
